Patent US5494912A, “9-purinyl phosphonic acid derivitives for treating gout” (Merrell Pharmaceuticals Inc., priority 1995, dated 1996)

Key:
[1] = biological target: T1, purine nucleoside phosphorylase (PNP) (Bos taurus, UniProt P55859); test: PNP inhibition, coupled xanthine oxidase method of Kalckar, bovine spleen PNP; type: biochemical
T1 construct: Spleen; from tissue; host or cells: spleen
T1 sequence (P55859 1-289): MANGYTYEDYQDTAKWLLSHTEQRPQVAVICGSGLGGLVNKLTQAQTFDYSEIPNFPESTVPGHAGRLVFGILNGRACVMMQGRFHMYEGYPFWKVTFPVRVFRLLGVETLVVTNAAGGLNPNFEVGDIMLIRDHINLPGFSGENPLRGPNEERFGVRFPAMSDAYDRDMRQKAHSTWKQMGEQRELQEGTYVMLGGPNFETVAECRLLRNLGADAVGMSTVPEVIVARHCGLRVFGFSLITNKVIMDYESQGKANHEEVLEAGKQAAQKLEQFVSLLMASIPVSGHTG

[2] = biological target: T2, purine nucleoside phosphorylase (PNP) (Homo sapiens, UniProt P00491); test: PNP inhibition, coupled xanthine oxidase method of Kalckar, human erythrocyte PNP; type: biochemical; conditions: 1 mM inorganic phosphate, 0.1M HEPES pH 7.4, inosine 0.05-0.15 mM as substrate; read-out: Ki (apparent dissociation constant), Human Erythrocytes PNP
T2 construct: Erythrocytes; from tissue; host or cells: erythrocytes
T2 sequence (P00491 1-289): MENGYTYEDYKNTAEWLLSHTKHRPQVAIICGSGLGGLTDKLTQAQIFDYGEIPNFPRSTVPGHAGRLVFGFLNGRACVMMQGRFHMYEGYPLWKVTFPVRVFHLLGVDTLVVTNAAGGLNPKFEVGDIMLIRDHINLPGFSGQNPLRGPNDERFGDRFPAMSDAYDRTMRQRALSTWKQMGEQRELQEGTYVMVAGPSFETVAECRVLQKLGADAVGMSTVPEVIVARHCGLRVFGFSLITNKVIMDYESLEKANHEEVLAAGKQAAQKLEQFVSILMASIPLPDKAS

purified protein = substrate: OC[C@H]1O[C@@H](n2cnc3c(O)ncnc32)[C@H](O)[C@@H]1O; test: purified protein; conditions: other: substrate KM for comparison with Ki; pH 7.4
[3] = substrate: OC[C@H]1O[C@@H](n2cnc3c(O)ncnc32)[C@H](O)[C@@H]1O; test: PNP inhibition, coupled xanthine oxidase method of Kalckar, E. coli PNP; type: biochemical; conditions: other: substrate KM for comparison with Ki; pH 7.4
[4] = substrate: OC[C@H]1O[C@@H](n2cnc3c(O)ncnc32)[C@H](O)[C@@H]1O; test: PNP inhibition, coupled xanthine oxidase method of Kalckar, bovine spleen PNP; type: biochemical; conditions: other: substrate KM for comparison with Ki; pH 7.4
[5] = substrate: OC[C@H]1O[C@@H](n2cnc3c(O)ncnc32)[C@H](O)[C@@H]1O; test: PNP inhibition, coupled xanthine oxidase method of Kalckar, human erythrocyte PNP; type: biochemical; conditions: other: substrate KM for comparison with Ki; pH 7.4

Nc1nc2c(ncn2Cc2ccccc2OCP(=O)(O)O)c(=O)[nH]1 [[2-[(2-amino-1,6,dihydro-6-oxo-9H-purin-9yl)methyl]phenoxy]methylphosphonic acid]
Ki [1]: 7.5 nM

Nc1nc2c(ncn2Cc2ccccc2OCCC(F)(F)P(=O)(O)O)c(=O)[nH]1
Ki [1]: 250 nM

Nc1nc2c(ncn2Cc2ccccc2C(F)C(F)(F)P(=O)(O)O)c(=O)[nH]1 (stereo not shown) [[2-[2-[(2-amino-1,6-dihydro-6-oxo-9H-purin-9-yl)methyl]phenyl]-1,1,2-trifluoroethyl]phosphonic acid]
Ki [2]: 1.3 nM

B1: purine nucleoside phosphorylase (PNP) (Rattus norvegicus) (protein)
chain: MENEFTYEDYQRTAEWLRSHTKHRPQVAVICGSGLGGLTAKLTQPQAFDYNEIPNFPQSTVQGHAGRLVFGFLNGRSCVMMQGRFHMYEGYSLSKVTFPVRVFHLLGVDTLVVTNAAGGLNPKFEVGDIMLIRDHINLPGFCGQNPLRGPNDERFGVRFPAMSDAYDRDMRQKAFNAWKQMGEQRELQEGTYIMSAGPTFETVAESCLLRMLGADAVGMSTVPEVIVARHCGLRVFGFSLITNKVVMDYNNLEKASHQEVLEAGKAAAQKLEQFVSILMESIPPRERAN
Km (purified protein): 150 µM

B2: purine nucleoside phosphorylase (PNP) (Escherichia coli K-12) (protein)
chain: ATPHINAEMGDFADVVLMPGDPLRAKYIAETFLEDAREVNNVRGMLGFTGTYKGRKISVMGHGMGIPSCSIYTKELITDFGVKKIIRVGSCGAVLPHVKLRDVVIGMGACTDSKVNRIRFKDHDFAAIADFDMVRNAVDAAKALGIDARVGNLFSADLFYSPDGEMFDVMEKYGILGVEMEAAGIYGVAAEFGAKALTICTVSDHIRTHEQTTAAERQTTFNDMIKIALESVLLGDKE
Km [3]: 80 µM

B3: purine nucleoside phosphorylase (PNP) (Bos taurus) (protein)
chain: MANGYTYEDYQDTAKWLLSHTEQRPQVAVICGSGLGGLVNKLTQAQTFDYSEIPNFPESTVPGHAGRLVFGILNGRACVMMQGRFHMYEGYPFWKVTFPVRVFRLLGVETLVVTNAAGGLNPNFEVGDIMLIRDHINLPGFSGENPLRGPNEERFGVRFPAMSDAYDRDMRQKAHSTWKQMGEQRELQEGTYVMLGGPNFETVAECRLLRNLGADAVGMSTVPEVIVARHCGLRVFGFSLITNKVIMDYESQGKANHEEVLEAGKQAAQKLEQFVSLLMASIPVSGHTG
notes: Spleen; from tissue; host or cells: spleen
Km [4]: 30 µM

B4: purine nucleoside phosphorylase (PNP) (Homo sapiens) (protein)
chain: MENGYTYEDYKNTAEWLLSHTKHRPQVAIICGSGLGGLTDKLTQAQIFDYGEIPNFPRSTVPGHAGRLVFGFLNGRACVMMQGRFHMYEGYPLWKVTFPVRVFHLLGVDTLVVTNAAGGLNPKFEVGDIMLIRDHINLPGFSGQNPLRGPNDERFGDRFPAMSDAYDRTMRQRALSTWKQMGEQRELQEGTYVMVAGPSFETVAECRVLQKLGADAVGMSTVPEVIVARHCGLRVFGFSLITNKVIMDYESLEKANHEEVLAAGKQAAQKLEQFVSILMASIPLPDKAS
notes: Erythrocytes; from tissue; host or cells: erythrocytes
Km [5]: 150 µM
